Measurements: patent US20090018093
Read-outs that look alike come from different tables or passages of the source.

Experiments:
[1] = test system: Immunoglobulin E (IgE) (Homo sapiens), P01854-1; assay: filter
[2] = test system: Immunoglobulin E (IgE) (Homo sapiens), P01854-1; assay: inhibition
[3] = biological target: T1, Immunoglobulin E (IgE) (Macaca fascicularis) (UniProt A0A7N9DC98); assay: inhibition; conditions: 3' idT; no inhibition of monkey IgE:FceR1a-Fc up to 250 nM
T1 sequence: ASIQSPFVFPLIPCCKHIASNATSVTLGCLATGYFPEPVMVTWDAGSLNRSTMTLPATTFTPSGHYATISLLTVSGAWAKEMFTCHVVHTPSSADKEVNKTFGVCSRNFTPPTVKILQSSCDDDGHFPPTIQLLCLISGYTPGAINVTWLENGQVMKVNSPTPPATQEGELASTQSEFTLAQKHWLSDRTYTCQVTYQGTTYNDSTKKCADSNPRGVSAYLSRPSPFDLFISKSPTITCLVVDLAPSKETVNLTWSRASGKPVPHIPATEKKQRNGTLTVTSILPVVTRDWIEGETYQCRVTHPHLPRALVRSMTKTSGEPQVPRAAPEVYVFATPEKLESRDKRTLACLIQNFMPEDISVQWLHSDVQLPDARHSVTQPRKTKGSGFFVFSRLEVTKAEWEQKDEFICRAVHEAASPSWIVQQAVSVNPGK

[4] = 2'-OMe C,U, deoxy A,G, FACS, 15 nM IgE
[5] = dRmY: 2'-deoxy A,G, 2'-OMe C,U, 1xPBS, BSA, tRNA, ssDNA, 25 C

Sequence of Immunoglobulin E (IgE) (Homo sapiens), P01854-1 (P01854 other isoform, or with tags, fused parts or gaps): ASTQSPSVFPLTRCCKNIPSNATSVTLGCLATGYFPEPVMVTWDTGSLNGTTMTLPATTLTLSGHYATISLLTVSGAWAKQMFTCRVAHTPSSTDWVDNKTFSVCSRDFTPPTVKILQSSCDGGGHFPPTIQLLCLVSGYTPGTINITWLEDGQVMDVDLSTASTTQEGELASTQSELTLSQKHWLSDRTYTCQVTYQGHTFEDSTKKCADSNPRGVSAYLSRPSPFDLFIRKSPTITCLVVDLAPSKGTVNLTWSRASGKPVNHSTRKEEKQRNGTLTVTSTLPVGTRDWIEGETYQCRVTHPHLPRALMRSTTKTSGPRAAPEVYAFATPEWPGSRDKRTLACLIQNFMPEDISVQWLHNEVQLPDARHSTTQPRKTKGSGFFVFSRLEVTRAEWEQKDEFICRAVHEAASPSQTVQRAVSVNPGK

GUUCUGGGGACCCAUGGGGGAAC [ARC442]
Kd ([1]; dRmY: 2'-deoxy A,G, 2'-OMe C,U, 1xPBS, BSA, 1 mg/mL tRNA, ssDNA, 25 C): 174 nM
IC50 [2, 4]: 58.9 nM

AGCCUGGGGACCCAUGGGGGGCU [ARC1335]
Kd ([1]; 2'-OMe C,U,A1,G2,G7,A10,A14,G17, deoxy G6,G8,G9,G16,G18-G21, 3' idT [2'-OMe: 1-5,7,10-15,17,22,23, deoxy: 6,8,9,16,18-21, 24 = 3' inverted dT], dPBS Ca/Mg + BSA, RT): 0.3 nM
IC50 ([2]; 2'-OMe A1,G2,G7,A10,A14,G17 and all C,U, rest 2'-deoxy, 3' idT [2'-OMe at 1,2,3,4,5,7,10,11,12,13,14,15,17,22,23, 2'-deoxy at 6,8,9,16,18,19,20,21, 3' idT left out], FACS, 2.5 nM IgE): 7.3 nM

GGGAAAAGCGAAUCAUACACAAGACGUCAGUAAGAUUGAGUGUAUGGUUCCUGGUGGACAAUAAUGGCUCCGCCAGAGACCAACCGAGAA [rRfY clone SEQ 21]
Kd ([1]; 2'-F C and U, biphasic, KD2 27.1 nM, 1xSHMCK + tRNA, RT): 0.183 nM
IC50 ([2]; 2'-F C,U, ELISA FceR1-Fc, FACS 14.4 nM (Table 25)): 3.7 nM

UAGCCUGGGGACCCAUGGGGGGCUA [ARC446]
Kd [1, 5]: 43 nM
IC50 [2, 4]: 33.8 nM

AGUUCUGGGGACCCAUGGGGGAACU [ARC443]
Kd [1, 5]: 55 nM
IC50 [2, 4]: 30.2 nM

AGCCUGGGGACCCAUGGGGGGCU [ARC1667]
Kd ([1]; 2'-OMe/2'-deoxy mix, dI18,dI20, PS as printed, 3' idT [18=dI, 20=dI (G parent), 24=3' inverted dT, phosphorothioate linkage N's left out], DPBS Mg/Ca, 0.1 mg/mL BSA, RT): 0.4 nM
IC50 ([2]; 2'-OMe/2'-deoxy mix, dI18,dI20, PS as printed, 3' idT [18=dI, 20=dI (G parent), 24=3' inverted dT, phosphorothioate linkage N's left out], FACS, 2.5 nM IgE): 2.3 nM

AGCCUGGGGACCCAUGGGGGGCU [ARC1641]
Kd ([1]; mAmGmCmCmUdGmGdG-s-dGmAmCmCmCmAmU-s-dG-s-mGdG-s-dGdI-s-dGmCmU-3T [2'-OMe 1-5,7,10-15,17,22,23, dI20 (inosine, parent base G), phosphorothioate 8/9,15/16,16/17,18/19,20/21 (N linkage letters left out), 3' inverted dT24], dPBS Ca/Mg + BSA, RT): 0.4 nM
IC50 ([2]; 2'-OMe/2'-deoxy mix, dI20, PS, 3' idT [dI at 20 (written as parent G), PS after 8,15,16,18,20, 2'-OMe/2'-deoxy mix, 3' idT left out], FACS, 2.5 nM IgE): 1.8 nM

AGCCUGGGGACCCAUGGGGGGCU [ARC1729]
Kd ([1]; 2'-OMe/2'-deoxy mix, dI16,dI18,dI20, PS as printed, 3' idT [16=dI, 18=dI, 20=dI (G parent), 24=3' inverted dT, 2'-OMe at 1-5,7,10-15,17,22,23, phosphorothioate linkage N's left out (5^6, 7^8, 8^9, 15^16, 17^18, 18^19, 19^20, 20^21)], DPBS Mg/Ca, 0.1 mg/mL BSA, RT): 1 nM
IC50 ([2]; 2'-OMe/2'-deoxy mix, dI16,dI18,dI20, PS as printed, 3' idT [16=dI, 18=dI, 20=dI (G parent), 24=3' inverted dT, 2'-OMe at 1-5,7,10-15,17,22,23, phosphorothioate linkage N's left out (5^6, 7^8, 8^9, 15^16, 17^18, 18^19, 19^20, 20^21)], FACS, 2.5 nM IgE): 2.9 nM

AGCCUGGGGACCCAUGGGGGGCU [ARC1728]
Kd ([1]; 2'-OMe/2'-deoxy mix, dI, PS, 3' idT [18=dI, 20=dI (G parent), 24=3' inverted dT, phosphorothioate linkage N's left out (5^6, 7^8, 8^9, 15^16, 17^18, 18^19, 19^20, 20^21)], DPBS Mg/Ca, 0.1 mg/mL BSA, RT): 2.3 nM
IC50 ([2]; 2'-OMe/2'-deoxy mix, dI, PS, 3' idT [18=dI, 20=dI (G parent), 24=3' inverted dT, phosphorothioate linkage N's left out (5^6, 7^8, 8^9, 15^16, 17^18, 18^19, 19^20, 20^21)], FACS, 2.5 nM IgE): 13.2 nM

AGCCUGGGGACCCAUGGGGGGCU [ARC1383]
Kd ([1]; 2'-OMe/2'-deoxy mix, PS linkages as in Table 17, 3' idT [phosphorothioate linkages (internal N, left out) between 8-9, 15-16, 18-19, 20-21, 2'-OMe/2'-deoxy mix (positions not given), 3' inverted dT at 24], DPBS Mg/Ca, 0.1 mg/mL BSA, RT): 1 nM
IC50 ([2]; 2'-OMe/2'-deoxy mix, PS linkages as in Table 17, 3' idT [phosphorothioate linkages (internal N, left out) between 8-9, 15-16, 18-19, 20-21, 2'-OMe/2'-deoxy mix (positions not given), 3' inverted dT at 24], FACS, 2.5 nM IgE): 7.5 nM

AGCCUGGGGACCCAUGGGGGGCU [ARC1572]
Kd ([1]; 2'-OMe/2'-deoxy mix, PS linkages as in Table 17, 3' idT [phosphorothioate linkages (internal N, left out) between 5-6, 7-8, 8-9, 15-16, 17-18, 18-19, 19-20, 20-21, 2'-OMe/2'-deoxy mix (positions not given), 3' inverted dT at 24], DPBS Mg/Ca, 0.1 mg/mL BSA, RT): 0.3 nM
IC50 ([2]; 2'-OMe/2'-deoxy mix, PS linkages as in Table 17, 3' idT [phosphorothioate linkages (internal N, left out) between 5-6, 7-8, 8-9, 15-16, 17-18, 18-19, 19-20, 20-21, 2'-OMe/2'-deoxy mix (positions not given), 3' inverted dT at 24], FACS, 2.5 nM IgE): 22.8 nM

AGCCUGGGGACCCAUGGGGGGCU [ARC1573]
Kd ([1]; as printed mAmGmCmCmU-s-dG-s-mG-s-dG-s-dGmAmCmCmCmAmU-s-dG-s-mG-s-dG-s-dG-s-dG-s-dG-s-mCmU-3T [2'-OMe: 1-5,7,10-15,17,22,23, deoxy: 6,8,9,16,18-21, phosphorothioate after 5-8,15-21, 24 = 3' inverted dT], dPBS Ca/Mg + BSA, RT): 0.4 nM
IC50 ([2]; 2'-OMe/2'-deoxy mix, PS, 3' idT [PS after 5,6,7,8,15,16,17,18,19,20,21, 2'-OMe/2'-deoxy mix, 3' idT left out], FACS, 2.5 nM IgE): 69.4 nM

GGGGCTACTTTATCCGTCCCTCCTAGTGGGTAGCCCC [ARC475]
Kd [1]: 0.5 nM
IC50 ([2]; FACS, 15 nM IgE): 17.1 nM

GGGGCTACTTTATCCGTCCCTCCTAGTGGGTAGCCCC [ARC475 with 3' idT]
IC50 [3]: > 250 nM

GGGGCTACTTTATCCGTTCCTCCTAGTGGGTAGCCCC [ARC480]
Kd [1]: 0.2 nM
IC50 ([2]; FACS, 15 nM IgE): 9.7 nM

GGGAAAAGCGAAUCAUACACAAGAGGUCUUACAGAUCCUGUGUAGUGGUUCGAUACAUGCGGGGCUCCGCCAGAGACCAACCGAGAA [rRfY clone SEQ 14]
Kd ([1]; 2'-F C and U, biphasic, KD2 99.5 nM, 1xSHMCK + tRNA, RT): 1.08 nM
IC50 ([2]; 2'-F C,U, ELISA FceR1-Fc, FACS 17.3 nM (Table 25)): 26.8 nM

AGCCUGGGGACCCAUGGGGGGCU [ARC1644]
Kd ([1]; 2'-OMe/2'-deoxy mix, dI16,dI20, PS, 3' idT [16=dI, 20=dI (G parent), 24=3' inverted dT, phosphorothioate linkage N's left out (5^6, 7^8, 8^9, 15^16, 17^18, 18^19, 19^20, 20^21)], DPBS Mg/Ca, 0.1 mg/mL BSA, RT): 1.7 nM
IC50 ([2]; 2'-OMe/2'-deoxy mix, dI16,dI20, PS, 3' idT [16=dI, 20=dI (G parent), 24=3' inverted dT, phosphorothioate linkage N's left out (5^6, 7^8, 8^9, 15^16, 17^18, 18^19, 19^20, 20^21)], FACS, 2.5 nM IgE): 5.2 nM

GGCGGCAGCTTTATCCGTACCTCCCAGTGGGCTGCTCC [DNA clone SEQ 149]
Kd [1]: 0.8 nM
IC50 ([2]; FACS, 15 nM IgE): 55.9 nM

GGGGCTACTTTATCCGTTCCTCTTAGTGGGTAGCCCC [ARC479]
Kd [1]: 0.4 nM
IC50 ([2]; FACS, 15 nM IgE): 14.4 nM

GGAAAAGCGAAUCAUACACAAGAGUCGCGAUAGAUUGCUUGUGAAUGGUUUUGGUGGAAGCGGGCUCCGCCAGAGACCAACCGAGAA [rRfY clone SEQ 12]
Kd ([1]; 2'-F C and U, biphasic, KD2 9.85 nM, 1xSHMCK + 0.1 mg/mL tRNA, RT): 0.057 nM
IC50 ([2]; 2'-F C,U, ELISA FceR1-Fc, FACS 7.1 nM (Table 25)): 5 nM

GGCGGCAGCTTTATCCGTACCTCCCAGTGGGCTGCTCC [DNA clone SEQ 149 with 3' idT]
IC50 [3]: > 250 nM

GGGAAAAGCGAAUCAUACACAAGAGUCGCUAGAUUGCUAGUGUAUGGUUUAUCUAAAGGCGGCCGCUCCGCCAGAGACCAACCGAGAA [rRfY clone SEQ 13]
Kd ([1]; 2'-F C and U, biphasic, KD2 14.6 nM, 1xSHMCK + tRNA, RT): 0.139 nM
IC50 ([2]; 2'-F C,U, ELISA FceR1-Fc, FACS 10.3 nM (Table 25)): 4.3 nM

AGCCUGGGGACCCAUGGGGGGCU [ARC1384]
Kd ([1]; as printed mAmGmCmCmUdGmG-s-dGmAmCmCmCmAmU-s-dG-s-mGdG-s-dGdG-s-dGmCmU-3T [2'-OMe: 1-5,7,10-15,17,22,23, deoxy: 6,8,9,16,18-21, phosphorothioate after 8,15,16,18,20, 24 = 3' inverted dT], dPBS Ca/Mg + BSA, RT): 0.5 nM
IC50 ([2]; 2'-OMe/2'-deoxy mix, PS, 3' idT [PS after 8,15,16,18,20, 2'-OMe/2'-deoxy mix, 3' idT left out], FACS, 2.5 nM IgE): 4.4 nM

GGGGCTACTTTATCCGTACCTCCCAGTGGGTAGCCCC [ARC476]
Kd [1]: 0.2 nM
IC50 ([2]; FACS, 15 nM IgE): 17.4 nM

GCCUGGGGACCCAUGGGGGGC [ARC444]
Kd [1, 5]: 73 nM
IC50 [2, 4]: 52.4 nM

GGGAAAAGCGAAUCAUACACAAGAUCCGAGGGUGGGCAAUAGGCUCACAAGGGUUUCGCGUGAUGCUCCGCCAGAGACCAACCGAGAA [rRfY clone SEQ 18]
Kd ([1]; 2'-F C and U, biphasic, KD2 27.3 nM, 1xSHMCK + tRNA, RT): 1.14 nM
IC50 ([2]; 2'-F C,U, ELISA FceR1-Fc, FACS 35 nM (Table 25)): 51.3 nM

AGCCUGGGGACCCAUGGGGGGCU [ARC1382]
Kd ([1]; 2'-OMe/2'-deoxy mix, PS linkages as in Table 17, 3' idT [phosphorothioate linkages (internal N, left out) between 8-9, 18-19, 20-21, 2'-OMe/2'-deoxy mix (positions not given), 3' inverted dT at 24], DPBS Mg/Ca, 0.1 mg/mL BSA, RT): 1.1 nM
IC50 ([2]; 2'-OMe/2'-deoxy mix, PS linkages as in Table 17, 3' idT [phosphorothioate linkages (internal N, left out) between 8-9, 18-19, 20-21, 2'-OMe/2'-deoxy mix (positions not given), 3' inverted dT at 24], FACS, 2.5 nM IgE): 6.9 nM
